Assay results published in US20210113687A1, “METHODS FOR TREATING INFLAMMATION” (NEW YORK UNIVERSITY, priority 2013, published 2021).

Tested on: BMDM
Assay: qRT-PCR of BMDM (palmitate, cytokines, adipocyte conditioned media)
Assay type: cell-based, mouse
Settings: direct addition of cytokine
Experimental: Real-time Quantitative RT-PCR Analysis RNA (0.5-1 μg) was reverse transcribed using iScript™ cDNA Synthesis Kit (Biorad) and RT-PCR analysis was conducted using kapa SYBR green Supermix (kappa syber) and a Mastercycler Realplex (Eppendorf) the primers used are listed. Fold change in mRNA expression was calculated using the comparative cycle method (ΔΔCt).
Cell culture. Primary bone marrow derived macrophage (BMDM) was prepared by flushing the bone marrow of the tibia and femur of 6-8 week old C57/B6 mice. The cells were grown in DMEM supplemented with 15% L929-conditioned media, 10% FBS and 1% penicillin/streptomycin for 7 days. BMDM were stimulated 250 pM palmitate conjugated with BSA or BSA as a control for 24 hours, or TNFα (10 ng/ml, 410-MT-010; R&D systems), IL-6 (40 nglml, 406-ML-005; R&D systems) and IL-4 (1 Onglml, 404-ML-010; R&D systems) for 24 h. In some assays, differentiated BMDM were treated with conditioned media from 3T3-L1 adipocytes differentiated as described (Lin, et al., J Biol Chem, 2005; 280:4617-4626) and treated with 250 pM palmitate conjugated with BSA or BSA for 24 hours. In certain experiments, anti-TNFα (0.4 μg/ml, AF-410-NA, R&D systems) or anti-IL-6 (0.025 μg/ml, MAB406; R&D systems) blocking antibody or IgG control (Normal Goat IgG: AB-108-C, Rat IgG1: MAB005; R&D systems) was added to conditioned media. […]

B1: IL-6: cytokine, 406-ML-005 R&D systems (protein, UniProt P08505 25-211, looked up)
Interleukin-6: FPTSQVRRGDFTEDTTPNRPVYTTSQVGGLITHVLWEIVEMRKELCNGNSDCMNNDDALAENNLKLPEIQRNDGCYQTGYNQEICLLKISSGLLEYHSYLEYMKNNLKDNKKDKARVLQRDTETLIHIFNQEVKDLHKIVLPTPISNALLTDKLESQKEWLRTKTIQFILKSLEEFLKVTLRSTRQT
- Ntn1 mRNA in BMDMs: increased Ntn1 mRNA
